Test [1] has as its target Recombinant biotinylated protein A (Thermo Fisher 29989) (UniProt P38507). Kind of test: SPR; Biacore T200, 25°C; biotinylated ligand captured on a CAP chip through the Biotin CAPture reagent; NISTmAb sample as analyte at 200 nmol/L in PBS-P+ pH 7.4, 50 μL/min, 100 s association, 300 s dissociation; response at the end of the association phase divided by that of NISTmAb Bex, mean of three independent experiments.

In test [2] the target is Recombinant biotinylated protein L (Thermo Fisher 21189) (UniProt Q51918). Described as above.

On to “NISTmAb oxidised in solution, 0.3% H2O2, 30 min (0.3%Nox0.5hr) (antibody)”, for which the binding relative to NISTmAb Bex in test [1] was found to be 94.7%; in test [2], 99.3%.

“NISTmAb oxidised in solution, 0.3% H2O2, 32 h (0.3%Nox32hr) (antibody)”: the values for the binding relative to NISTmAb Bex in test [1] and in test [2] were 38.5% and 92.6%, respectively.

The record behind these values is publication PMC9035890.
